{"source": "FireProtDB (doi:10.1073/pnas.96.20.11283)", "proteins": {"B1": {"name": "Alpha-lactalbumin wild type, P00709 (protein)", "chain": "MRFFVPLFLVGILFPAILAKQFTKCELSQLLKDIDGYGGIALPELICTMFHTSGYDTQAIVENNESTEYGLFQISNKLWCKSSQVPQSRNICDISCDKFLDDDITDDIMCAKKILDIKGIDYWLAHKALCTEKLEQWLCEKL"}}, "details": "Homo sapiens, pH 4.2, 20 °C, Urea, CD, sodium acetate 2 mM, whole UniProt chain shown", "note": "Where “and” joins values, the source holds several entries; their conditions need not be identical. Identical values can stand only once.", "data": [{"protein": "B1", "values": [{"measurement": "denaturant m value", "setting": "Na2SO4 20 mM", "value": "0.88 kcal/mol/M and 0.67 kcal/mol/M"}, {"measurement": "denaturant midpoint (higher = more stable)", "setting": "Na2SO4 20 mM", "value": "4.34 M and 5.85 M"}, {"measurement": "denaturant m value", "setting": "NaCl 30 mM", "value": 0.58, "unit": "kcal/mol/M"}, {"measurement": "denaturant midpoint (higher = more stable)", "setting": "NaCl 30 mM", "value": 5.43, "unit": "M"}, {"measurement": "denaturant midpoint (higher = more stable)", "setting": "NaClO4 50 mM", "value": "4.62 M and 6.06 M"}]}]}
